According to PMC3762362:

Key:
[1] = target: SNAP-tagged S. cerevisiae Arp2/3 complex labeled with Dy649 (Arp2/3-SNAP649) (S. cerevisiae) (UniProt P32381)
[2] = target: SNAP-tagged S. cerevisiae Arp2/3 complex labeled with Dy649 (Arp2/3-SNAP649) (S. cerevisiae) (UniProt P32381); remark: listed apart in the source
[3] = target: SNAP-tagged S. cerevisiae Arp2/3 complex labeled with Dy649 (Arp2/3-SNAP649) (S. cerevisiae) (UniProt P32381); assay: colocalization single molecule spectroscopy (CoSMoS, TIRF); biotinylated AF488-actin filaments tethered to the slide; 5 nM Arp2/3-SNAP649, 5 nM Cy3-diVCA construct and 1 μM actin (10% AF488 labeled) in solution; TIRF buffer; time resolution 0.15 s
[4] = target: SNAP-tagged S. cerevisiae Arp2/3 complex labeled with Dy649 and biotin (Arp2/3-SNAP649-biotin) (S. cerevisiae) (UniProt P32381); assay: colocalization single molecule spectroscopy (CoSMoS, TIRF); Arp2/3-SNAP649-biotin tethered to the slide through streptavidin; 0.1–2 nM Cy3-diVCA construct and 1 μM actin (10% AF488 labeled) in solution; periods with no filament colocalized; TIRF buffer (50 mM KCl, 1 mM MgCl2, 1 mM EGTA, 10 mM imidazole pH 7.2)
[5] = target: Endogenous bovine Arp2/3 complex (bovine (endogenous in calf thymus)) (UniProt A7MB62); assay: fluorescence polarisation; fluorescence anisotropy competition: VVCA-A462C-AF594 reporter with 200 nM bovine Arp2/3 complex and increasing unlabeled GST-VCA, GST-VVCA or GST-VCA-C*; fit to a competition-binding isotherm
[6] = target: VCA-AF594 (N-WASP VCA 430–505, S430C, C431A, AlexaFluor 594 labeled) (human) (UniProt O00401); assay: fluorescence polarisation; fluorescence anisotropy of 10 nM VCA-AF594 with increasing non-polymerizable Drosophila 5C actin or yeast Arp2/3 complex; single site binding isotherm
VCA-AF594 (N-WASP VCA 430–505, S430C, C431A, AlexaFluor 594 labeled) (human), sequence (O00401 430-505 S430C/C431A): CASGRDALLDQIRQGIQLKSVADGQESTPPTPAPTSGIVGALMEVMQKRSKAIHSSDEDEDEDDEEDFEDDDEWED

[7] = target: VVCA-A462C-AF594 (N-WASP 393–505, C431A, A462C, AlexaFluor 594 labeled) (human) (UniProt O00401); assay: fluorescence polarisation; fluorescence anisotropy, direct binding of 20 nM VVCA-A462C-AF594 to bovine Arp2/3 complex; no actin; 10 min incubation
VVCA-A462C-AF594 (N-WASP 393–505, C431A, A462C, AlexaFluor 594 labeled) (human), sequence (O00401 393-505 C431A/A462C): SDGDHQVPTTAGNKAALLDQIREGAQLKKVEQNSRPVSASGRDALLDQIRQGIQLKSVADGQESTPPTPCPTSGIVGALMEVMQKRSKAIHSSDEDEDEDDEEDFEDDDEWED

[8] = target: Surface-tethered actin filaments (10% AF488 labeled, 1% biotinylated) (rabbit) (UniProt P68135); assay: colocalization single molecule spectroscopy (CoSMoS, TIRF); biotinylated AF488-actin filaments tethered to the slide; Arp2/3-SNAP649 and 1 μM actin in solution, no VCA; TIRF buffer; rate constant per filament subunit
[9] = target: Surface-tethered actin filaments (10% AF488 labeled, 1% biotinylated) (rabbit) (UniProt P68135); assay: colocalization single molecule spectroscopy (CoSMoS, TIRF); biotinylated AF488-actin filaments tethered to the slide; 5 nM Arp2/3-SNAP649, 5 nM Cy3-diVCA construct and 1 μM actin (10% AF488 labeled) in solution; TIRF buffer; time resolution 0.15 s

Cy3-diVCA wild-type (N-WASP VCA covalently dimerized with a Cy3 bis-maleimide), sequence (O00401 other isoform, or with tags, fused parts or gaps): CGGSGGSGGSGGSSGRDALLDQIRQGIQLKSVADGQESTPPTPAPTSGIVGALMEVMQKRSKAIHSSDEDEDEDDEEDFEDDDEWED
Cy3-diVCA-A* (Δ486–488), sequence (O00401 other isoform, or with tags, fused parts or gaps mutant): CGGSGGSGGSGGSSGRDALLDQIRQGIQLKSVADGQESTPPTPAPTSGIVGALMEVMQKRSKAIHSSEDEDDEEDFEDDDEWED

Substance | kB, second order rate constant for branch formation (per mother filament subunit), single-molecule TIRF [1] [M⁻¹ s⁻¹] | fold stimulation of Arp2/3 complex-dependent nucleation in bulk pyrene-actin assays (barbed ends at the midpoint; 25 nM diVCA construct, 10 nM Arp2/3-SNAP) [2] [fold] | fAV, fraction of Arp2/3 complexes that bind filament sides coincident with diVCA [3] | kV*, rate constant for diVCA release from the nascent branch (filament-bound Arp2/3 complex) [3] [s⁻¹] | τV*, mean lifetime of diVCA on nascent branches (filament-bound Arp2/3 complex) [3] [s] | kon [4] [M⁻¹ s⁻¹] | τV1, first characteristic lifetime of diVCA on isolated Arp2/3 complexes [4] [s] | τV2, second characteristic lifetime of diVCA on isolated Arp2/3 complexes [4] [s] | other results
Cy3-diVCA wild-type (N-WASP VCA covalently dimerized with a Cy3 bis-maleimide) (from UniProt O00401 432-505) (domain or fragment) | 160 | 2 | 0.83 | 0.04 | 0.7 | 1.6e+08 | 8 | 61 | Kd [4]: < 2 nM; percent of tethered Arp2/3 complexes observed to bind diVCA [4]: > 80%
Cy3-diVCA-C* (I467A) (from UniProt O00401 432-505) (domain or fragment) | 200 | 6 | 0.59 | 0.05 | 0.37 | 6e+07 | 2.4 | 14 | –
GST-VCA-C* (GST fusion of N-WASP VCA with the C* mutation) (from UniProt O00401 432-505) (domain or fragment) | – | – | – | – | – | – | – | – | fold weaker affinity than GST-VCA [5]: 4 fold
Cy3-diVCA-V* (D435S/A436D) (from UniProt O00401 432-505) (domain or fragment) | 320 | 10 | 0.7 | 0.08 | 0.54 | 7e+07 | 3.6 | 56 | –
Cy3-diVCA-A* (Δ486–488) (from UniProt O00401 432-505) (domain or fragment) | 100 | 1.4 | 0.7 | 0.022 | 0.7 | 1.6e+08 | 40 | 250 | –
S. cerevisiae Arp2/3 complex purified from commercial baker's yeast (from UniProt P32381 1-391; P47117 1-449; Q05933 1-178) | – | – | – | – | – | – | – | – | Kd [6]: 65 nM
Endogenous bovine Arp2/3 complex (from UniProt A7MB62 1-394; P61157 1-418) | – | – | – | – | – | – | – | – | Kd [7]: 150 nM
SNAP-tagged S. cerevisiae Arp2/3 complex labeled with Dy649 (Arp2/3-SNAP649) (from UniProt P32381 1-391; P47117 1-449; Q05933 1-178) | – | – | – | – | – | – | – | – | kon [8]: 20000 M⁻¹ s⁻¹; kA+ (binding to filament sides, per filament subunit) with diVCA A* present [9]: 8000 M⁻¹ s⁻¹; kA+ (binding to filament sides, per filament subunit) with diVCA C* present [9]: 20000 M⁻¹ s⁻¹; kA+ (binding to filament sides, per filament subunit) with diVCA V* present [9]: 13000 M⁻¹ s⁻¹; kA+ (binding to filament sides, per filament subunit) with diVCA w.t. present [9]: 21000 M⁻¹ s⁻¹
